Laboratory results: US20210388087A1 (Chugai, published 2021)

Target: T1, Human CD3eg linker (human)
T1 construct: single-chain construct; also called recombinant human CD3
T1 chain: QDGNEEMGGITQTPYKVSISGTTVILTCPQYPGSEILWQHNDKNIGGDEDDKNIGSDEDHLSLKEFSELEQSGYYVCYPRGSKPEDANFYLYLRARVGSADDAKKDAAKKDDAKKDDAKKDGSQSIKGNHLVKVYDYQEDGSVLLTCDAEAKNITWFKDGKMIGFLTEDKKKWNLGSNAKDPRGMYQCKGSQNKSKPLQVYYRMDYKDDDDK
Test: SPR, vs unmutated H183/L072

Binder | fold change of affinity [fold]
dBBDu183H A100fK/dBBDu072L (antibody, name in Kabat numbering, V domains shown) VH: QVQLVESGGGLVQPGRSLRLSCAASGFTFSNAWMHWVRQAPGKGLEWVAQIKDKGNAYAAYYAPSVKGRFTISRDDSKNSIYLQMNSLKTEDTAVYYCHYVHYASASTVLPKFGVDAWGQGTTVTVSS VL: DIVMTQSPLSLPVTPGEPASISCQASQELVHMNRNTYLHWYQQKPGQAPRLLIYKVSNRFPGVPDRFSGSGSGTDFTLKISRVEAEDVGVYYCAQGTSVPFTFGQGTKLEIK | 1.4
dBBDu183H A100fN/dBBDu072L (antibody, name in Kabat numbering, V domains shown) VH: QVQLVESGGGLVQPGRSLRLSCAASGFTFSNAWMHWVRQAPGKGLEWVAQIKDKGNAYAAYYAPSVKGRFTISRDDSKNSIYLQMNSLKTEDTAVYYCHYVHYASASTVLPNFGVDAWGQGTTVTVSS VL: DIVMTQSPLSLPVTPGEPASISCQASQELVHMNRNTYLHWYQQKPGQAPRLLIYKVSNRFPGVPDRFSGSGSGTDFTLKISRVEAEDVGVYYCAQGTSVPFTFGQGTKLEIK | 1.3
dBBDu183H A100fT/dBBDu072L (antibody, name in Kabat numbering, V domains shown) VH: QVQLVESGGGLVQPGRSLRLSCAASGFTFSNAWMHWVRQAPGKGLEWVAQIKDKGNAYAAYYAPSVKGRFTISRDDSKNSIYLQMNSLKTEDTAVYYCHYVHYASASTVLPTFGVDAWGQGTTVTVSS VL: DIVMTQSPLSLPVTPGEPASISCQASQELVHMNRNTYLHWYQQKPGQAPRLLIYKVSNRFPGVPDRFSGSGSGTDFTLKISRVEAEDVGVYYCAQGTSVPFTFGQGTKLEIK | 1.6
dBBDu183H A100fV/dBBDu072L (antibody, name in Kabat numbering, V domains shown) VH: QVQLVESGGGLVQPGRSLRLSCAASGFTFSNAWMHWVRQAPGKGLEWVAQIKDKGNAYAAYYAPSVKGRFTISRDDSKNSIYLQMNSLKTEDTAVYYCHYVHYASASTVLPVFGVDAWGQGTTVTVSS VL: DIVMTQSPLSLPVTPGEPASISCQASQELVHMNRNTYLHWYQQKPGQAPRLLIYKVSNRFPGVPDRFSGSGSGTDFTLKISRVEAEDVGVYYCAQGTSVPFTFGQGTKLEIK | 1
dBBDu183H A100fR/dBBDu072L (antibody, name in Kabat numbering, V domains shown) VH: QVQLVESGGGLVQPGRSLRLSCAASGFTFSNAWMHWVRQAPGKGLEWVAQIKDKGNAYAAYYAPSVKGRFTISRDDSKNSIYLQMNSLKTEDTAVYYCHYVHYASASTVLPRFGVDAWGQGTTVTVSS VL: DIVMTQSPLSLPVTPGEPASISCQASQELVHMNRNTYLHWYQQKPGQAPRLLIYKVSNRFPGVPDRFSGSGSGTDFTLKISRVEAEDVGVYYCAQGTSVPFTFGQGTKLEIK | 1.6
dBBDu183H A100fW/dBBDu072L (antibody, name in Kabat numbering, V domains shown) VH: QVQLVESGGGLVQPGRSLRLSCAASGFTFSNAWMHWVRQAPGKGLEWVAQIKDKGNAYAAYYAPSVKGRFTISRDDSKNSIYLQMNSLKTEDTAVYYCHYVHYASASTVLPWFGVDAWGQGTTVTVSS VL: DIVMTQSPLSLPVTPGEPASISCQASQELVHMNRNTYLHWYQQKPGQAPRLLIYKVSNRFPGVPDRFSGSGSGTDFTLKISRVEAEDVGVYYCAQGTSVPFTFGQGTKLEIK | 0.7
dBBDu183H A100fS/dBBDu072L (antibody, name in Kabat numbering, V domains shown) VH: QVQLVESGGGLVQPGRSLRLSCAASGFTFSNAWMHWVRQAPGKGLEWVAQIKDKGNAYAAYYAPSVKGRFTISRDDSKNSIYLQMNSLKTEDTAVYYCHYVHYASASTVLPSFGVDAWGQGTTVTVSS VL: DIVMTQSPLSLPVTPGEPASISCQASQELVHMNRNTYLHWYQQKPGQAPRLLIYKVSNRFPGVPDRFSGSGSGTDFTLKISRVEAEDVGVYYCAQGTSVPFTFGQGTKLEIK | 1.7
dBBDu183H A100fQ/dBBDu072L (antibody, name in Kabat numbering, V domains shown) VH: QVQLVESGGGLVQPGRSLRLSCAASGFTFSNAWMHWVRQAPGKGLEWVAQIKDKGNAYAAYYAPSVKGRFTISRDDSKNSIYLQMNSLKTEDTAVYYCHYVHYASASTVLPQFGVDAWGQGTTVTVSS VL: DIVMTQSPLSLPVTPGEPASISCQASQELVHMNRNTYLHWYQQKPGQAPRLLIYKVSNRFPGVPDRFSGSGSGTDFTLKISRVEAEDVGVYYCAQGTSVPFTFGQGTKLEIK | 1.2
